The record followed here is patent US20240002505A1 (NANJING IASO BIOTECHNOLOGY, published 2024).

For assay [1], the target named is T1, CD5 antigen (Octet affinity determination, Example 8) (UniProt P06127 25-372, limits assumed).
T1 sequence (looked up): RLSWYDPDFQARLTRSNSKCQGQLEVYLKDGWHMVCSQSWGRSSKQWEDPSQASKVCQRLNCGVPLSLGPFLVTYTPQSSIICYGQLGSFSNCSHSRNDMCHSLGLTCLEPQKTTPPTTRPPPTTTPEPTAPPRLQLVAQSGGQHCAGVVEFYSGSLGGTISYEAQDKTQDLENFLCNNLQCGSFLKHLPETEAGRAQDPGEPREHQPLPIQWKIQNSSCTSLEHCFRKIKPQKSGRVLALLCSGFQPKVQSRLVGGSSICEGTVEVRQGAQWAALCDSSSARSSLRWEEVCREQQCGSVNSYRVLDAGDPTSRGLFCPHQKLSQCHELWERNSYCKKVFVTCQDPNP
Put plainly: BLI (Octet), IgG loaded on the biosensor, CD5 antigen 400 to 12.5 nM, 1:1 model.

In assay [2] the target is T2, human CD5 on the cell surface (human, UniProt P06127 25-495).
T2 construct: whole, on cells; One molecule for CD5 on all cell lines; also called natural CD5 on the cell membrane; CD5 antigen on Jurkat, CCRF-CEM, MOLT4 cells
T2 sequence (looked up): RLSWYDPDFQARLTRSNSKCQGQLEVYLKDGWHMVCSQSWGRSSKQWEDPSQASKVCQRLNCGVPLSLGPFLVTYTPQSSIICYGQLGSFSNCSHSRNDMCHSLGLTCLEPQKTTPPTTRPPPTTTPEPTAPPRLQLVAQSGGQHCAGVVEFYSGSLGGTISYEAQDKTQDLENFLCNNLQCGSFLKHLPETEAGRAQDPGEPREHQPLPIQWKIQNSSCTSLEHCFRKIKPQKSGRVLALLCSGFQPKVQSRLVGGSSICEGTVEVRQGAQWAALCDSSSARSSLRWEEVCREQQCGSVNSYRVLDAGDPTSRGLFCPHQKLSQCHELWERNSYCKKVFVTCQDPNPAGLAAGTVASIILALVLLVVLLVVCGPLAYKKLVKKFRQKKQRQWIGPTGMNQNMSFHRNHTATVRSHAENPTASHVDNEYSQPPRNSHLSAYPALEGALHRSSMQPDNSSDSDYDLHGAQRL
The assay can be described thus: phage FACS on CCRF-CEM cells (CD5 positive), anti-M13 + FITC anti-mouse IgG, median of FITC-A.

Assay [3] addresses T3, Recombinant biotinylated Human CD19 Protein-Fc (Kactus, CD2-HE121) (human, UniProt P15391 20-291, biotinylated).
T3 construct: Control antigen; also called CD19-Fc-Bio; Kactus-CD19-FC-Bio; not shown: Fc tag
T3 sequence (looked up): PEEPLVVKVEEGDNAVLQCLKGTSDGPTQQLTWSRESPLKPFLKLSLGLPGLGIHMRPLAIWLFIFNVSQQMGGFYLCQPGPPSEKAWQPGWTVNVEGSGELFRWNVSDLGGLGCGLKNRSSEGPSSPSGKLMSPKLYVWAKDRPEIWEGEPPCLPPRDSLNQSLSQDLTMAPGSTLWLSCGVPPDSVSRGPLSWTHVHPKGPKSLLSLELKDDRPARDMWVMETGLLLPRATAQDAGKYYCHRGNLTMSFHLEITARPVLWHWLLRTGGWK
The assay can be described thus: phage ELISA. Background: In an ELISA, binding on a coated surface is turned into a signal by an enzyme label.

Assay [4] addresses T4, Streptavidin (Pierce, 21125) (UniProt P22629 37-163, limits assumed).
T4 construct: Non-related control antigen; also called SA
Put plainly: phage ELISA.

Assay [5] deals with T5, Biotinylated Recombinant human BAFFR Protein (Kactus, BAF-HM40RB) (human, UniProt Q96RJ3 7-71, limits assumed, biotinylated).
T5 construct: Non-related control antigen; also called Kactus-BAFFR-his-Bio; not shown: his tag
T5 sequence (looked up): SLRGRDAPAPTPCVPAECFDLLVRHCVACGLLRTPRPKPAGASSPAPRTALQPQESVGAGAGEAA
Put plainly: phage ELISA.

The target of assay [6] is T2, human CD5 on the cell surface. Put plainly: phage FACS on Jurkat cells (CD5 positive), anti-M13 + FITC anti-mouse IgG, median of FITC-A.

The term Kd denotes the free concentration of one partner at which half of the binding sites on the other are occupied at equilibrium, for simple one-to-one binding. Lower therefore signals a tighter complex. The koff is the first-order rate constant of dissociation. What is called kon is a measure of how fast the partners come together. A low value points to slow association.

T4 sequence (P22629 37-163 limits assumed): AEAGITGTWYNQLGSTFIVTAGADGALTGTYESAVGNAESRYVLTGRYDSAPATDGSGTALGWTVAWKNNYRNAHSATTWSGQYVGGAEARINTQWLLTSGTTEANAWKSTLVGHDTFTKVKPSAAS

B1: Clone 10 anti-CD5 IgG (antibody, V domains shown)
VH: EVQLLESGGGLVKPGGSLRLSCAASGFTFNNYTMNWVRQAPGKGLEWVSSISSSSSYIYYADSVKGRFTISRDNAKNSLFLQMNSLRGEDTAVYYCARYFSGSAGDYWGQGTLVTVSS
VL: QSVVTQPPSVSGAPGQRVTISCTGSSSNIGAGYDVHWYQQLPGTAPKLLIYGNINRPSGVPDRFSGSKSGTSASLAITGLQAEDEADYYCGTWDNSLSAHYVFGTGTKVTVLG
In assay [1], B1 had an equilibrium dissociation constant (Kd) of 4.49 nM, a koff of 0.00143 s⁻¹ and a kon of 318000 M⁻¹ s⁻¹.

B2: phage monoclone #7 (scFv)
scFv: QSVVTQPPSVSAAPGQKATISCSGSSSNIGNNDVSWYQQLPGTAPKLLIQDNDKRPSGIPDRFSGSKSGTSATLGITGLQTGDEADYYCAVWDSSLSAAVFGPGTKVTVLGSRGGGGSGGGGSGGGGSLEMAEVQLVQSGAEVKKPGESLKISCKGSGYSFTSYWIGWVRQMPGKGLEWMGIIYPDDSDTTYSPSFQGQVTMSVDKSISTAYLQWNSLQASDTAMYYCARMSLTSYLATDGWGQGTLVTVSS
notes: also called scFv7
On to B2, for which the entries for the “Median (B1-A)” value in assay [2] and in assay [6] were 12.4 and 28.3, respectively. For the same molecule, the binding result in assay [3], in assay [4] and in assay [5] was “no binding” each time.

B3: phage monoclone #35 (scFv)
scFv: QSVLTQPPSVSAAPGQKVTISCSGSSSNIGNNYVSWYQQLPGTAPKLLIYDNNKRPSGIPDRFSGSKSGTSATLGITGLQTGDEADYYCGTWDSSLSAVVFGGGTKLTVLGSRGGGGSGGGGSGGGGSLEMAQVQLVESGGGLVQPGGSLRLSCAASGFTFSSYAMSWVRQTPGKGLEWVSTITDSGDITYYTASVQGRFTISRDNSKNTLYLQMNSLRAEDTAVYYCARMSSHWYFSADYWGQGTLVTVSS
notes: also called scFv35
Regarding B3, the binding result in assay [3], in assay [4] and in assay [5] was “no binding” in each case.

B4: phage monoclone #9 (scFv)
scFv: QPVLTQPPSVSGSPGQSVTISCTGTSDDIGNYKRVSWYQQPPGTAPKLMIYEVTNRPPGVPNRFSGSKSGNTASLTISGLQAEDEADYYCSSYASGDTYVFGTGTKVTVLGSRGGGGSGGGGSGGGGSLEQVQLVQSGAEVEKPGASVKISCKASTYTFTNYYIHWVRQAPGQGLEWMGMINPSGDTTSYAQKFQGRVTMTRDTSTSTVYMELSSLRSEDTAVYYCARLSWYWGGSFDDWGQGTLVTVSS
notes: also called scFv9
Consider B4, for which the “Median (B1-A)” value in assay [2] was determined as 3.37; in assay [6], 12.8. Moreover, the binding result in assay [3], in assay [4] and in assay [5] was “no binding” throughout.

B5: Clone 35 anti-CD5 IgG (antibody, V domains shown)
VH: QVQLVESGGGLVQPGGSLRLSCAASGFTFSSYAMSWVRQTPGKGLEWVSTITDSGDITYYTASVQGRFTISRDNSKNTLYLQMNSLRAEDTAVYYCARMSSHWYFSADYWGQGTLVTVSS
VL: QSVLTQPPSVSAAPGQKVTISCSGSSSNIGNNYVSWYQQLPGTAPKLLIYDNNKRPSGIPDRFSGSKSGTSATLGITGLQTGDEADYYCGTWDSSLSAVVFGGGTKLTVLG
notes: The VH entry as printed begins with MA carried over from the scFv
On to B5, for which, in assay [1], the affinity, expressed as Kd, was 13.6 nM; the koff came out at 0.000382 s⁻¹; the kon amounted to 28100 M⁻¹ s⁻¹.

B6: Clone 32 anti-CD5 IgG (antibody, V domains shown)
VH: QVQLVESGGGLVKPGGSLRLSCAASGFTFSSYSMNWVRQAPGKGLEWVSSISSSSSYIYYADSVKGRFTISRDNAKNSLYLQMNSLRAEDTAVYYCARGNPWYGVDYWGQGTLVTVSS
VL: QSVLTQPPSVSAAPGQKVTISCSGSNSNIGNNYVSWYQQLPGTAPKRLIYDNNKRPSGIPDRFSGSKSGTSATLGITGLQTGDEADYYCGIWDSSLDAYVFGTGTKVTVLG
As for B6, in assay [1], the dissociation constant (Kd) amounted to 28.3 nM, the koff turned out to be 0.00217 s⁻¹ and the on-rate (kon) is 76500 M⁻¹ s⁻¹.

B7: H65 anti-CD5 IgG (antibody, V domains shown)
VH: QIQLVQSGPELKKPGETVKISCKASGYTFTNYGMNWVKQAPGKGLRWMGWINTHTGEPTYADDFKGRFAFSLETSASTAYLQINNLKNEDTATYFCTRRGYDWYFDVWGAGTTVTVSS
VL: DIKMTQSPSSMYASLGERVTITCKASQDINSYLSWFHHKPGKSPKTLIYRANRLVDGVPSRFSGSGSGQDYSLTISSLDYEDMGIYYCQQYDESPWTFGGGTKLEIK
In assay [1], B7 returned a Kd of 2.25 nM, an off-rate constant (koff) of 0.000813 s⁻¹ and an on-rate (kon) of 361000 M⁻¹ s⁻¹.

B8: phage monoclone #32 (scFv)
scFv: QVQLVESGGGLVKPGGSLRLSCAASGFTFSSYSMNWVRQAPGKGLEWVSSISSSSSYIYYADSVKGRFTISRDNAKNSLYLQMNSLRAEDTAVYYCARGNPWYGVDYWGQGTLVTVSSTSGGGGSGGGGSGGGGSELQSVLTQPPSVSAAPGQKVTISCSGSNSNIGNNYVSWYQQLPGTAPKRLIYDNNKRPSGIPDRFSGSKSGTSATLGITGLQTGDEADYYCGIWDSSLDAYVFGTGTKVTVLG
notes: also called scFv32
For the molecule B8, the binding result in assay [3], in assay [4] and in assay [5] was “no binding” each time.

B9: phage monoclone #6 (scFv)
scFv: NFMLTQPHSVSESPGKTVTISCTGNSGSIARNYVQWYQQRPGSAPTMLIYEDNRRPSGVPDRFSGSIDSSSNSASLTISGLKTEDEADYYCQSYDDNTSWVFGGGTKLTVLGSRGGGGSGGGGSGGGGSLEMAEVQLVQSGAEVKKPGSSVKVSCKASGGTFSSNAITWVRQAPGQGLEWMGGIIPMFGTTDYAQKFQGRVTMTADESTSTAYMELRSLRSEDTAVYYCARDGGGRHPYYYYGMDVWGQGTTVTVSS
notes: also called scFv6
For B9, the “Median (B1-A)” value in assay [2] is 1.71; in assay [6] it was 71.8. Besides, the binding result in assay [3], in assay [4] and in assay [5] was “no binding” each time.

B10: phage monoclone #10 (scFv)
scFv: QSVVTQPPSVSGAPGQRVTISCTGSSSNIGAGYDVHWYQQLPGTAPKLLIYGNINRPSGVPDRFSGSKSGTSASLAITGLQAEDEADYYCGTWDNSLSAHYVFGTGTKVTVLGSRGGGGSGGGGSGGGGSLEEVQLLESGGGLVKPGGSLRLSCAASGFTFNNYTMNWVRQAPGKGLEWVSSISSSSSYIYYADSVKGRFTISRDNAKNSLFLQMNSLRGEDTAVYYCARYFSGSAGDYWGQGTLVTVSS
notes: also called scFv10
With B10, the “Median (B1-A)” value stood at 17.1 in assay [2] and 31.6 in assay [6]. For the same molecule, the binding result in assay [3], in assay [4] and in assay [5] was “no binding” in each case.
